Patent US11278600B2, “Human alpha-galactosidase variants” (Codexis, Inc., priority 2014, dated 2022)

Key:
Type in all cases: biochemical
[1] = HTP-analysis of yeast culture supernatants, no challenge (MUGal hydrolysis); settings: activity of the variant/activity of Rd4BB (SEQ ID NO: 15)
Outline: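 GLA variants were expressed in INVSc1 yeast grown in SD-Ura broth with glucose at 30° C., and culture supernatants were collected after 66-84 h. Supernatant was mixed with McIlvaine buffer pH 4.8 and MUGal (2 mM stock) in 50 mM citrate, 200 mM KCl, pH 4.6, incubated at 37° C. for 30-180 minutes, then quenched with sodium carbonate.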

[2] = HTP-analysis of supernatants pretreated with acid (MUGal hydrolysis); settings: activity of the variant/activity of Rd4BB (SEQ ID NO: 15); challenge at pH 3.7
Outline: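 MUGal hydrolysis was tracked by fluorescence (Ex 355 nm, Em 448 nm) after a 30-180 min reaction at 37° C. in pH 4.8 McIlvaine/citrate buffer, stopped with 1 M sodium carbonate. Beforehand, yeast (INVSc1) culture supernatants carrying GLA variants were held 1-3 h at 37° C. in acidic McIlvaine buffer, pH 3.3-4.3.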

[3] = HTP-analysis of supernatants pretreated with base (MUGal hydrolysis); settings: activity of the variant/activity of Rd4BB (SEQ ID NO: 15); challenge at pH 9.65
Outline: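 Supernatants from INVSc1 yeast expressing GLA variants (SD-Ura, 66-84 h, 30° C) were mixed with McIlvaine buffer pH 7.0-8.2 or 200 mM sodium bicarbonate pH 9.1-9.7 and held 1-18 h at 37° C. Residual activity was then measured on MUGal at pH 4.8/4.3, 37° C, 30-180 min, by fluorescence (Ex 355/Em 448 nm).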

Molecule | Relative Activity of GLA Variants After No Challenge (NC) [1] | Relative Activity of GLA Variants After Challenge at pH 3.7 [2] | Relative Activity of GLA Variants After Challenge at pH 9.65 [3]
417 (protein, Synthetic Polypeptide sequence of Variant No. 417 of mature Human GLA) LDNGLARTPTMGWLHWERFMCNLDCQEEPDSCISEKLFMEMAERMVSEGWKDAGYEYLCIDDCWMAPQRDSEGRLQADPQRFPHGIRQLANYVHSKGLKLGIYADVGNKTCAGFPGSFGYYDIDAQTFADWGVDLLKFDGCYCDSLENLADGYKHMSLALNSTGRSIVYSCEWPLYMWPFQKPNYTEIRQYCNHWRNFADIDDSWKSIKSILDWTSRNQERIVDVAGPGGWNDPDMLVIGNFGLSWDQQVTQMALWAIMAAPLFMSNDLRHISPQAKALLQDKDVIAINQDPLGKQGYQLRKGDNFEVWERPLSGDAWAVAIINRQEIGGPRSYTIPVASLGKGVACNPACFITQLLPVKRQLGFYNWTSRLKSHINPTGTVLLQLENTMQMSLKDLL | + (0.5 to 1.5 relative activity over Rd4BB (SEQ ID NO: 15)) | + (0.5 to 1.5 relative activity over Rd4BB (SEQ ID NO: 15)) | − (<0.5 relative activity over Rd4BB (SEQ ID NO: 15))
418 (protein, Synthetic Polypeptide sequence of Variant No. 418 of mature Human GLA) LDNGLARTPTMGWLHWERFMCNLDCQEEPDSCISEKLFMEMAERMVSEGWKDAGYEYLCIDDCWMAPQRDSEGRLQADPQRFPHGIRQLANYVHSKGLKLGIYADVGNKTCAGFPGSFGYYDIDAQTFADWGVDLLKFDGCYCDSLENLADGYKHMSLALERTGRSIVYSCEWPLYMWPFQKPNYTEIRQYCNHWRNFADIDDSWKSIKSILDWTSRNQERIVDVAGPGGWNDPDMLVIGNFGLSWDQQVTQMALWAIMAAPLFMSNDLRHISPQAKALLQDKDVIAINQDPLGKQGYQLRKGDNFEVWERPLSGDAWAVAIINRQEIGGPRSYTIPVASLGKGVACNPACFITQLLPVKRQLGFYNWTSRLKSHINPTGTVLLQLENTMQMSLKDLL | + (0.5 to 1.5 relative activity over Rd4BB (SEQ ID NO: 15)) | + (0.5 to 1.5 relative activity over Rd4BB (SEQ ID NO: 15)) | − (<0.5 relative activity over Rd4BB (SEQ ID NO: 15))
363 (protein, Synthetic Polypeptide sequence of Variant No. 363 of mature Human GLA) LDNGLARTPTMGWLHWERFMCNLDCQEEPDSCISEKLFMEMAERMVDEGWKDAGYEYLCIDDCWMAPQRDSEGRLQADPQRFPHGIRQLANYVHSKGLKLGIYADVGNKTCAGFPGSFGYYDIDAQTFADWGVDLLKFDGCYCDSLENLADGYKHMSLALNRTGRSIVYSCEWPLYMWPFQKPNYTEIRQYCNHWRNFADIDDSWKSIKSILDWTSRNQERIVDVAGPGGWNDPDMLVIGNFGLSWDQQVTQMALWAIMAAPLFMSNDLRHISPQAKALLQDKDVIAINQDPLGKQGYQLRKGDNFEVWERPLSGDAWAVAIINRQEIGGPRSYTIPVASLGKGVACNPACFITQLLPVKRQLGFYNWTSRLKSHINPTGTVLLQLENTMQMSLKDLL | + (0.5 to 1.5 relative activity over Rd4BB (SEQ ID NO: 15)) | + (0.5 to 1.5 relative activity over Rd4BB (SEQ ID NO: 15)) | + (0.5 to 1.5 relative activity over Rd4BB (SEQ ID NO: 15))
419 (protein, Synthetic Polypeptide sequence of Variant No. 419 of mature Human GLA) LDNGLARTPTMGWLHWERFMCNLDCQEEPDSCISEKLFMEMAERMVSEGWKDAGYEYLCIDDCWMAPQRDSEGRLQADPQRFPHGIRQLANYVHSKGLKLGIYADVGNKTCAGFPGSFGYYDIDAQTFADWGVDLLKFDGCYCDSLENLADGYKHMSLALNRTGREIVYSCEWPLYMWPFQKPNYTEIRQYCNHWRNFADIDDSWKSIKSILDWTSRNQERIVDVAGPGGWNDPDMLVIGNFGLSWDQQVTQMALWAIMAAPLFMSNDLRHISPQAKALLQDKDVIAINQDPLGKQGYQLRKGDNFEVWERPLSGDAWAVAIINRQEIGGPRSYTIPVASLGKGVACNPACFITQLLPVKRQLGFYNWTSRLKSHINPTGTVLLQLENTMQMSLKDLL | + (0.5 to 1.5 relative activity over Rd4BB (SEQ ID NO: 15)) | + (0.5 to 1.5 relative activity over Rd4BB (SEQ ID NO: 15)) | + (0.5 to 1.5 relative activity over Rd4BB (SEQ ID NO: 15))
420 (protein, Synthetic Polypeptide sequence of Variant No. 420 of mature Human GLA) LDNGLARTPTMGWLHWERFMCNLDCQEEPDSCISEKLFMEMAERMVSEGWKDAGYEYLCIDDCWMAPQRDSEGRLQADPQRFPHGIRQLANYVHSKGLKLGIYADVGNKTCAGFPGSFGYYDIDAQTFADWGVDLLKFDGCYCDSLENLADGYKHMSLALNRTGRTIVYSCEWPLYMWPFQKPNYTEIRQYCNHWRNFADIDDSWKSIKSILDWTSRNQERIVDVAGPGGWNDPDMLVIGNFGLSWDQQVTQMALWAIMAAPLFMSNDLRHISPQAKALLQDKDVIAINQDPLGKQGYQLRKGDNFEVWERPLSGDAWAVAIINRQEIGGPRSYTIPVASLGKGVACNPACFITQLLPVKRQLGFYNWTSRLKSHINPTGTVLLQLENTMQMSLKDLL | + (0.5 to 1.5 relative activity over Rd4BB (SEQ ID NO: 15)) | ++ (>1.5 to 2.5 relative activity over Rd4BB (SEQ ID NO: 15)) | − (<0.5 relative activity over Rd4BB (SEQ ID NO: 15))
421 (protein, Synthetic Polypeptide sequence of Variant No. 421 of mature Human GLA) LDNGLARTPTMGWLHWERFMCNLDCQEEPDSCISEKLFMEMAERMVSEGWKDAGYEYLCIDDCWMAPQRDSEGRLQADPQRFPHGIRQLANYVHSKGLKLGIYADVGNKTCAGFPGSFGYYDIDAQTFADWGVDLLKFDGCYCDSLENLADGYKHMSLALNQTGRSIVYSCEWPLYMWPFQKPNYTEIRQYCNHWRNFADIDDSWKSIKSILDWTSRNQERIVDVAGPGGWNDPDMLVIGNFGLSWDQQVTQMALWAIMAAPLFMSNDLRHISPQAKALLQDKDVIAINQDPLGKQGYQLRKGDNFEVWERPLSGDAWAVAIINRQEIGGPRSYTIPVASLGKGVACNPACFITQLLPVKRQLGFYNWTSRLKSHINPTGTVLLQLENTMQMSLKDLL | + (0.5 to 1.5 relative activity over Rd4BB (SEQ ID NO: 15)) | + (0.5 to 1.5 relative activity over Rd4BB (SEQ ID NO: 15)) | − (<0.5 relative activity over Rd4BB (SEQ ID NO: 15))
423 (protein, Synthetic Polypeptide sequence of Variant No. 423 of mature Human GLA) LDNGLARTPTMGWLHWERFMCNLDCQEEPDSCISEKLFMEMAERMVSEGWKDAGYEYLCIDDCWMAPQRDSEGRLQADPQRFPHGIRQLANYVHSKGLKLGIYADVGNKTCAGFPGSFGYYDIDAQTFADWGVDLLKFDGCYCDSLENLADGYKHMSLALNATGRSIVYSCEWPLYMWPFQKPNYTEIRQYCNHWRNFADIDDSWKSIKSILDWTSRNQERIVDVAGPGGWNDPDMLVIGNFGLSWDQQVTQMALWAIMAAPLFMSNDLRHISPQAKALLQDKDVIAINQDPLGKQGYQLRKGDNFEVWERPLSGDAWAVAIINRQEIGGPRSYTIPVASLGKGVACNPACFITQLLPVKRQLGFYNWTSRLKSHINPTGTVLLQLENTMQMSLKDLL | + (0.5 to 1.5 relative activity over Rd4BB (SEQ ID NO: 15)) | + (0.5 to 1.5 relative activity over Rd4BB (SEQ ID NO: 15)) | + (0.5 to 1.5 relative activity over Rd4BB (SEQ ID NO: 15))
422 (protein, Synthetic Polypeptide sequence of Variant No. 422 of mature Human GLA) LDNGLARTPTMGWLHWERFMCNLDCQEEPDSCISEKLFMEMAERMVSEGWKDAGYEYLCIDDCWMAPQRDSEGRLQADPQRFPHGIRQLANYVHSKGLKLGIYADVGNKTCAGFPGSFGYYDIDAQTFADWGVDLLKFDGCYCDSLENLADGYKHMSGALNRTGRSIVYSCEWPLYMWPFQKPNYTEIRQYCNHWRNFADIDDSWKSIKSILDWTSRNQERIVDVAGPGGWNDPDMLVIGNFGLSWDQQVTQMALWAIMAAPLFMSNDLRHISPQAKALLQDKDVIAINQDPLGKQGYQLRKGDNFEVWERPLSGDAWAVAIINRQEIGGPRSYTIPVASLGKGVACNPACFITQLLPVKRQLGFYNWTSRLKSHINPTGTVLLQLENTMQMSLKDLL | + (0.5 to 1.5 relative activity over Rd4BB (SEQ ID NO: 15)) | + (0.5 to 1.5 relative activity over Rd4BB (SEQ ID NO: 15)) | − (<0.5 relative activity over Rd4BB (SEQ ID NO: 15))
